This is an account of results in paper doi:10.1101/2025.09.11.675682, “Weak SLP-76-PLC-γ1 interaction in the LAT-nucleated multi-protein complex fine-tunes TCR signal strength to optimize T cell responsiveness” (bioRxiv, 2025).

Experiment [1] concerns the target T1, PLC-γ1 (Phospholipase C-γ1), 1–1219 (UniProt P19174 1-1219).
T1 construct: the text calls it full length PLC-γ1; also called full length PLC-γ1
T1 sequence (looked up): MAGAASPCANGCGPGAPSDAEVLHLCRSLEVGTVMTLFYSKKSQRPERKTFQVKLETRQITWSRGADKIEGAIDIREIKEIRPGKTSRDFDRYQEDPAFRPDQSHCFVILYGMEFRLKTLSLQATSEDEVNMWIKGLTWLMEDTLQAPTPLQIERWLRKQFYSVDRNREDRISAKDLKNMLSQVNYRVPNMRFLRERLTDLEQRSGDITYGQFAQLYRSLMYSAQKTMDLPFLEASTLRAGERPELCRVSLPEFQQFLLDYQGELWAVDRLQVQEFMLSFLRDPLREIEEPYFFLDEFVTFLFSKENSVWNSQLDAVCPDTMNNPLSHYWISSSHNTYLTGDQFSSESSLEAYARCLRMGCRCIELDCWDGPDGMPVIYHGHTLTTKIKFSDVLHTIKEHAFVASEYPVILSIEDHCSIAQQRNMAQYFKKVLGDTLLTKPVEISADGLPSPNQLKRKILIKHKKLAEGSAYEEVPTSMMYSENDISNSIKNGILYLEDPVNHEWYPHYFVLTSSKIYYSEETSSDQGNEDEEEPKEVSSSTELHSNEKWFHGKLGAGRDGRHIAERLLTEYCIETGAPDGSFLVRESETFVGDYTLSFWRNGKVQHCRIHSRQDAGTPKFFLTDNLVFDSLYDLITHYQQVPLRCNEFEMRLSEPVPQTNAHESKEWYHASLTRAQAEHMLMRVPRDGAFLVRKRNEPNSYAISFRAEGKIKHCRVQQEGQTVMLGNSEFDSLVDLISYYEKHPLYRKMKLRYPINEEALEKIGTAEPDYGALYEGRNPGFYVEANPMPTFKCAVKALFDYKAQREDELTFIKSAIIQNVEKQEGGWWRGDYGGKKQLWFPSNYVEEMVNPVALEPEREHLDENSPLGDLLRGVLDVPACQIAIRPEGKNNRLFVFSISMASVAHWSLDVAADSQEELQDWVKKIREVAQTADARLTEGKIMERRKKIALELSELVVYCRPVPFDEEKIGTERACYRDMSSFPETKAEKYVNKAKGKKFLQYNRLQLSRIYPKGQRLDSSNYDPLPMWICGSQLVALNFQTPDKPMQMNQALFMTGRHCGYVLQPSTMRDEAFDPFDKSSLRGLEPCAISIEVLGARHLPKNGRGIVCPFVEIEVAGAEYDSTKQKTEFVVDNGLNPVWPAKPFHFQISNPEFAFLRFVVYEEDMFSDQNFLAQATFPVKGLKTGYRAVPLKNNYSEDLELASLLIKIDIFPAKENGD
Description: ITC; VP-ITC; 5°C; 20 mM Hepes (pH 7.4), 100 mM NaCl, 0.1 mM DTT; 4 μM in the cell, 40 μM in the syringe; single binding site fit with 1:1 stoichiometry; 3 independent experiments. The following applies: both partners purified. For orientation: In ITC the heat of successive injections is recorded.

In experiment [2] the target is T1, PLC-γ1 (Phospholipase C-γ1), 1–1219. Kind of experiment: cell-based or functional assay.

B1: SLP-76^WT polypeptide (aa 103–258, Y113F, Y173F) (domain or fragment, UniProt Q13094 103-258, looked up)
chain: GGWSSFEEDDFESPNDDQDGEDDGDYESPNEEEEAPVEDDADYEPPPSNDEEALQNSILPAKPFPNSNSMFIDRPPSGKTPQQPPVPPQRPMAALPPPPAGRNHSPLPPPQTNHEEPSRSRNHKTAKLPAPSIDRSTKPPLDRSLAPFDREPFTLG
notes: wild-type proline-rich region; not shown: His6, N-terminal, cleaved; GST, N-terminal, cleaved
Broadly, the Kd is the concentration at which binding is half-saturated. Read a high Kd as weaker binding. In experiment [1], B1 returned a Kd of 2.32 µM and a dH of -3.8 kcal/mol. Also, in experiment [2], the “PLC-γ1 activity (IP3 from PIP2-bearing liposomes): LAT-Gads-SLP-76^WT-PLC-γ1 tetramer against PLC-γ1 with phospho-LAT alone” value was 1.7 fold.

B2: SLP-76 PRR peptide (aa 185–200), wild type (peptide, UniProt Q13094 185-200, looked up)
peptide: QPPVPPQRPMAALPPP
notes: SLP-76 proline-rich region, residues 185–200; also called SLP-76 185–200 (WT); SLP-76 PRR_(185–200) peptide
In the case of B2, in experiment [1], the Kd is 3.99 µM and the dH is -3.3 kcal/mol.
